Results: US20240261333A1, “NOVEL TARGETS FOR ENHANCING ANTI-TUMOR IMMUNITY” (THE BROAD INSTITUTE, INC., priority 2021, published 2024)

Columns and labels:
EMILIN1 (human) = EMILIN1 (human) (UniProt Q9Y6C2); test: control IP with IgG, lysate of cells with C-FLAG B3GNT2, mass spectrometry
GEMIN4 (human) = GEMIN4 (human) (UniProt P57678); test: as above
HNRNPM (human) = HNRNPM (human) (UniProt P52272); test: as above
PKM (human) = PKM (human) (UniProt P14618); test: as above
PPFIBP1 (human) = PPFIBP1 (human) (UniProt Q86W92); test: as above
RPL7 (human) = RPL7 (human) (UniProt P18124); test: as above
RPS14 (human) = RPS14 (human) (UniProt P62263); test: as above
SYNCRIP (human) = SYNCRIP (human) (UniProt O60506); test: as above
TELO2 (human) = TELO2 (human) (UniProt Q9Y4R8); test: as above
TPM3 (human) = TPM3 (human) (UniProt P06753); test: as above
DDX20 = DDX20 (UniProt Q9UHI6); test: co-IP, anti-FLAG, C-FLAG B3GNT2 cell lysate, mass spectrometry
DNAJA2 = DNAJA2 (UniProt O60884); test: as above
EIF4G1 = EIF4G1 (UniProt Q04637); test: as above
Chain of EIF4G1 (Q04637 41-1599 limits assumed): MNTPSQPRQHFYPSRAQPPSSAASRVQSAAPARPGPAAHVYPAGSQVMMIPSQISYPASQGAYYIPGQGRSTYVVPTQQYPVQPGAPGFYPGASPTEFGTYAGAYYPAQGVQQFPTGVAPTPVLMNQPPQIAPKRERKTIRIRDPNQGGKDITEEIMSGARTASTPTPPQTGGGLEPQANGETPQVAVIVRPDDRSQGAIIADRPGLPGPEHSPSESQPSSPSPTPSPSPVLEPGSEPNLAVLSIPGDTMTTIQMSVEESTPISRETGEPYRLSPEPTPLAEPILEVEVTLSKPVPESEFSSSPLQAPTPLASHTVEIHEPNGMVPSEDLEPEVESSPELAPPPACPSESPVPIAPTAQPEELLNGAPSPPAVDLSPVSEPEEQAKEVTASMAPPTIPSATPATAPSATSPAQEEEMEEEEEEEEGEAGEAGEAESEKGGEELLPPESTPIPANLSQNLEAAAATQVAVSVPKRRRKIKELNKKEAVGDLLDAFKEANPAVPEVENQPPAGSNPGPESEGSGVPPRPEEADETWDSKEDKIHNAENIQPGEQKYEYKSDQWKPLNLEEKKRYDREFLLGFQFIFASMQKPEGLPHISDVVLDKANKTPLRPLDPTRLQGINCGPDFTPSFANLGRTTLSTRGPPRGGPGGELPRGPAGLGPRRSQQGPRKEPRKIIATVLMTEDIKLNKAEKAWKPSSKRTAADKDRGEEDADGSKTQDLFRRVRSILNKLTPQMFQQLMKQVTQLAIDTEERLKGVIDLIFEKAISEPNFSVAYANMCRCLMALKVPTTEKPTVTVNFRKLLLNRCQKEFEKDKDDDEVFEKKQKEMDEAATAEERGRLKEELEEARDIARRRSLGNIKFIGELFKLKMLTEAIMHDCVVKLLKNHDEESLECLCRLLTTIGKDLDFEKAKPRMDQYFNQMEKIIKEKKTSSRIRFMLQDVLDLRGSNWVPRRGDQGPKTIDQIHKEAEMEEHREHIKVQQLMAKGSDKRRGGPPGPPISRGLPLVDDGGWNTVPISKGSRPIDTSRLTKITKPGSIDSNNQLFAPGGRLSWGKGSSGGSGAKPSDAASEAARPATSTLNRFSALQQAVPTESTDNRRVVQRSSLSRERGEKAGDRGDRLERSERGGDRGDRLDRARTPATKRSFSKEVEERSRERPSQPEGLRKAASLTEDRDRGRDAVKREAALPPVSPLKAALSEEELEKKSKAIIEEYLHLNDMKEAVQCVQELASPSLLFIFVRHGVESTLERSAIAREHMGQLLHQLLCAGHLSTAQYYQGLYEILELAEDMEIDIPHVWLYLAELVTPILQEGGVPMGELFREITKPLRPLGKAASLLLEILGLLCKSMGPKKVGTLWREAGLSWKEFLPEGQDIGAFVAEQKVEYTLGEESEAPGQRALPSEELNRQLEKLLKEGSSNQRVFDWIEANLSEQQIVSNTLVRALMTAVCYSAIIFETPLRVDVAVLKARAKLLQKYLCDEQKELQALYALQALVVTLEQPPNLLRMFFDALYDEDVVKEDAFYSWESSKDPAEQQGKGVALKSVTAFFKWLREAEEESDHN

HIST1H1E = HIST1H1E (UniProt P10412); test: as above
HNRNPU = HNRNPU (UniProt Q00839); test: as above
HSPB1 = HSPB1 (UniProt P04792); test: as above
ITGB3 = ITGB3 (UniProt P05106); test: as above
LIMA1 = LIMA1 (UniProt Q9UHB6); test: as above
MTCH2 = MTCH2 (UniProt Q9Y6C9); test: as above
MTDH = MTDH (UniProt Q86UE4); test: as above
NCCRP1 = NCCRP1 (UniProt Q6ZVX7); test: as above
PBXIP1 = PBXIP1 (UniProt Q96AQ6); test: as above
Chain of PBXIP1 (Q96AQ6 30-731 limits assumed): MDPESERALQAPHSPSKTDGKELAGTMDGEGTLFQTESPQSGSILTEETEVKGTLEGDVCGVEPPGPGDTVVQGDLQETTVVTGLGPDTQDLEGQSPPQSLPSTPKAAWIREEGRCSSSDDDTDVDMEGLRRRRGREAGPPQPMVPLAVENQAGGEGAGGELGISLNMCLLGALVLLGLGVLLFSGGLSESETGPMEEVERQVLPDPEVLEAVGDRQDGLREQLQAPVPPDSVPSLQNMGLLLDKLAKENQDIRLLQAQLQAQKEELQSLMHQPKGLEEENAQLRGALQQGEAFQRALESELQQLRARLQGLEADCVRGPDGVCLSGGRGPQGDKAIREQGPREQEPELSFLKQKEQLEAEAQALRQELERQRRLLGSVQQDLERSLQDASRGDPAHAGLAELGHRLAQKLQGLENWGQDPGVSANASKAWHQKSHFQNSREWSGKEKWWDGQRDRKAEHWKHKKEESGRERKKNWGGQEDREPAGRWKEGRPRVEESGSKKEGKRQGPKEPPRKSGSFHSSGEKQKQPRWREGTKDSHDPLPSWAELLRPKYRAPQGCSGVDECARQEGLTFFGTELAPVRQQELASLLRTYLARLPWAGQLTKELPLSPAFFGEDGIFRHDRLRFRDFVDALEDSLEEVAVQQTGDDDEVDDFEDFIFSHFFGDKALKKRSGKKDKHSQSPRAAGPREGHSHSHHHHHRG

PSMA7 = PSMA7 (UniProt O14818); test: as above
Chain of PSMA7 (O14818 whole entry): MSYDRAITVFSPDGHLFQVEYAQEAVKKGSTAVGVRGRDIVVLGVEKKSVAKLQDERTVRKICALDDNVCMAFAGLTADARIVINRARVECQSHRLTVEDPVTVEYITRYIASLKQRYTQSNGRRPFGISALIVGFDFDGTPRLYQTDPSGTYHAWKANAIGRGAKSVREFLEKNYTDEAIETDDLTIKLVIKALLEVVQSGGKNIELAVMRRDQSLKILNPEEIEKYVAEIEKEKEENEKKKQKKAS

RPL19 = RPL19 (UniProt P84098); test: as above
RPL22 = RPL22 (UniProt P35268); test: as above
RPL27A = RPL27A (UniProt P46776); test: as above
RPL3 = RPL3 (UniProt P39023); test: as above
RPL35 = RPL35 (UniProt P42766); test: as above
RPL37A = RPL37A (UniProt P61513); test: as above
RPL5 = RPL5 (UniProt P46777); test: as above
RPS16 = RPS16 (UniProt P62249); test: as above
RPS19 = RPS19 (UniProt P39019); test: as above
RPS8 = RPS8 (UniProt P62241); test: as above
SRSF1 = SRSF1 (UniProt Q07955); test: as above
SRSF3 = SRSF3 (UniProt P84103); test: as above
SSRP1 = SSRP1 (UniProt Q08945); test: as above
TAGLN = TAGLN (UniProt Q01995); test: as above
TNKS1BP1 = TNKS1BP1 (UniProt Q9C0C2); test: as above
Chain of TNKS1BP1 (Q9C0C2 whole entry): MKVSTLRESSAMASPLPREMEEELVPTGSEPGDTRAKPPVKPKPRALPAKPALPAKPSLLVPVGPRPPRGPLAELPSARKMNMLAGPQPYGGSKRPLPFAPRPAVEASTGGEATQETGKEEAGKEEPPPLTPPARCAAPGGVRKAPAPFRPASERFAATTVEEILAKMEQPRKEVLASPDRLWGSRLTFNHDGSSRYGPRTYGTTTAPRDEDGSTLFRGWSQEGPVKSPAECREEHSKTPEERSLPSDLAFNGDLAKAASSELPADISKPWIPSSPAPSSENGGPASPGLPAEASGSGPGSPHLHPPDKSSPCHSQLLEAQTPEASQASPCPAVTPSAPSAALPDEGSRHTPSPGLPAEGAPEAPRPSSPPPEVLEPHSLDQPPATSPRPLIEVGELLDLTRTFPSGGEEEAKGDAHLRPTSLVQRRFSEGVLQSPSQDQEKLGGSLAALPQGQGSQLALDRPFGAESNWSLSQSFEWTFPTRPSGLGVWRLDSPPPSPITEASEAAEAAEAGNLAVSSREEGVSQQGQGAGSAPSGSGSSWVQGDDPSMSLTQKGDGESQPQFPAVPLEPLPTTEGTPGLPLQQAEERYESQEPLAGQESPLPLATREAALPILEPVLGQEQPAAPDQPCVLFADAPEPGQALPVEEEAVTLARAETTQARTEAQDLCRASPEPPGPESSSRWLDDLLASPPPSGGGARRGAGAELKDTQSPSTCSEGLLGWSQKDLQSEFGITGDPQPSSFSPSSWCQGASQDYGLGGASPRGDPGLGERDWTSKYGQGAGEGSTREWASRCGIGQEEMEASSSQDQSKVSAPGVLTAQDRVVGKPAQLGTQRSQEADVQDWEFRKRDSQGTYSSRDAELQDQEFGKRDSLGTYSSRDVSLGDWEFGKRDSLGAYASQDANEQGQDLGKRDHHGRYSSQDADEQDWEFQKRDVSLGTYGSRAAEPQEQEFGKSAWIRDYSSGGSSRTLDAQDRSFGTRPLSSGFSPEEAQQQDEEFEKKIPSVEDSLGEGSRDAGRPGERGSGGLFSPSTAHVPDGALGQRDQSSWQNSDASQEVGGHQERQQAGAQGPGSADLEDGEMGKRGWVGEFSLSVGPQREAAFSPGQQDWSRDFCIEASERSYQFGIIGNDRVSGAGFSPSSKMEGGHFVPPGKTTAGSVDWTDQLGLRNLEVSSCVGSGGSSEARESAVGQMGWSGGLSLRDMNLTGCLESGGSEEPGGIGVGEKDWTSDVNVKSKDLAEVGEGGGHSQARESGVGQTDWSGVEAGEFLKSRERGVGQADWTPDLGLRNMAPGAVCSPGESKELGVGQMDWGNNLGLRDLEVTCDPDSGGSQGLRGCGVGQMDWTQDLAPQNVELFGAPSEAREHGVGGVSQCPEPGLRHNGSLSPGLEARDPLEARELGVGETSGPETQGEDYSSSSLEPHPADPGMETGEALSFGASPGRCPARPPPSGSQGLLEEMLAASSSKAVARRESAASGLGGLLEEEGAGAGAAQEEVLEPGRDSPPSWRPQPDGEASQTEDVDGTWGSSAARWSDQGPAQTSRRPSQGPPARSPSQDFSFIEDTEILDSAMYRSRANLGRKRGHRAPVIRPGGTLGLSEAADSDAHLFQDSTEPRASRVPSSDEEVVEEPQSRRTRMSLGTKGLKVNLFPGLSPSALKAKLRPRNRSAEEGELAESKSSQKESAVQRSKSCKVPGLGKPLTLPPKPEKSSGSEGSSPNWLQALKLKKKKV

TXN = TXN (UniProt P10599); test: as above
Chain of TXN (P10599 2-105 limits assumed): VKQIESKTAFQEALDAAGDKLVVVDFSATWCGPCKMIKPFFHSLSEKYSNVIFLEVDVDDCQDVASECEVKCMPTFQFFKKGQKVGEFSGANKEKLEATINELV

RPS6 (human) = RPS6 (human) (UniProt P62753); test: anti-FLAG co-IP from lysate of C-FLAG B3GNT2 cells, mass spectrometry

Chain of HNRNPM (human) (P52272 2-730 limits assumed): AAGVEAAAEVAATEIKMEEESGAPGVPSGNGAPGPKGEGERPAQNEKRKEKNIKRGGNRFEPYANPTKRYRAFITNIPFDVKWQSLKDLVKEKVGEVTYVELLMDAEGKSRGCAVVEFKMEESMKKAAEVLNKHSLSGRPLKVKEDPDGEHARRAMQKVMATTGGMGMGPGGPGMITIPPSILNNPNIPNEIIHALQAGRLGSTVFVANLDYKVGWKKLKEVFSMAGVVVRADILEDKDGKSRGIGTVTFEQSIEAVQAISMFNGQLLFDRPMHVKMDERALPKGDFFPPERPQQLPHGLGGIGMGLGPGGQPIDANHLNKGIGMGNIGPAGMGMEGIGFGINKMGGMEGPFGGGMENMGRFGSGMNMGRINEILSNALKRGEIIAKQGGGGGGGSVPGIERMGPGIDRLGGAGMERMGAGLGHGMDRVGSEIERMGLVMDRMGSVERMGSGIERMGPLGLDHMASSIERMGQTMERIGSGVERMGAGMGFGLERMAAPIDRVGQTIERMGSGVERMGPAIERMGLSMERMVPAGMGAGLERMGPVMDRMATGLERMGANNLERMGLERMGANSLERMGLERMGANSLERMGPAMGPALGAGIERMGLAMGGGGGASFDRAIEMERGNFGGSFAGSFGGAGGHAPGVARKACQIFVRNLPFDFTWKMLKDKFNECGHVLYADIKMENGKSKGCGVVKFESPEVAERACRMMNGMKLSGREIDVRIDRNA

Substance: IgG control (Millipore Sigma 12-371) (antibody)
- co-IP mass spectrometry count (EMILIN1 (human)): 0
- co-IP mass spectrometry count (GEMIN4 (human)): 0
- co-IP mass spectrometry count (HNRNPM (human)): 5
- co-IP mass spectrometry count (PKM (human)): 2
- co-IP mass spectrometry count (PPFIBP1 (human)): 0
- co-IP mass spectrometry count (RPL7 (human)): 3
- co-IP mass spectrometry count (RPS14 (human)): 10
- co-IP mass spectrometry count (SYNCRIP (human)): 4
- co-IP mass spectrometry count (TELO2 (human)): 0
- co-IP mass spectrometry count (TPM3 (human)): 2

Substance: C-terminal FLAG tagged B3GNT2 (from UniProt Q9NY97 1-397) (enzyme)
- co-IP mass spectrometry count (DDX20): 6
- co-IP mass spectrometry count (DNAJA2): 3
- co-IP mass spectrometry count (EIF4G1): 6
- co-IP mass spectrometry count (HIST1H1E): 6
- co-IP mass spectrometry count (HNRNPU): 12
- co-IP mass spectrometry count (HSPB1): 4
- co-IP mass spectrometry count (ITGB3): 3
- co-IP mass spectrometry count (LIMA1): 2
- co-IP mass spectrometry count (MTCH2): 2
- co-IP mass spectrometry count (MTDH): 6
- co-IP mass spectrometry count (NCCRP1): 4
- co-IP mass spectrometry count (PBXIP1): 4
- co-IP mass spectrometry count (PSMA7): 2
- co-IP mass spectrometry count (RPL19): 11
- co-IP mass spectrometry count (RPL22): 5
- co-IP mass spectrometry count (RPL27A): 10
- co-IP mass spectrometry count (RPL3): 25
- co-IP mass spectrometry count (RPL35): 5
- co-IP mass spectrometry count (RPL37A): 7
- co-IP mass spectrometry count (RPL5): 6
- co-IP mass spectrometry count (RPS16): 20
- co-IP mass spectrometry count (RPS19): 10
- co-IP mass spectrometry count (RPS8): 17
- co-IP mass spectrometry count (SRSF1): 9
- co-IP mass spectrometry count (SRSF3): 7
- co-IP mass spectrometry count (SSRP1): 6
- co-IP mass spectrometry count (TAGLN): 3
- co-IP mass spectrometry count (TNKS1BP1): 8
- co-IP mass spectrometry count (TXN): 3
- co-IP mass spectrometry count (RPS6 (human)): 20
